In patent US20220002344A1:
Square brackets hold non-standard residues; d marks the D form. Primed or numbered codes have the meaning given here. Ends that are not written are not given here. FITC′ = fluorescein isothiocyanate label; Cha = N[C@@H](CC1CCCCC1)C(=O)O

Key:
[1] = biological target: E. coli 70S ribosome particle (E. coli); experiment: ITC, 30 °C, peptide titrated into E. coli 70S ribosome
[2] = biological target: E. coli 70S ribosome particle (E. coli); experiment: ITC, 30 °C, E. coli ribosome
[3] = biological target: E. coli sliding clamp (DnaN protein, β subunit of DNA polymerase III) (E. coli) (UniProt P0A988); experiment: cell-based or functional assay
Sequence of E. coli sliding clamp (DnaN protein, β subunit of DNA polymerase III) (E. coli) (P0A988 whole entry): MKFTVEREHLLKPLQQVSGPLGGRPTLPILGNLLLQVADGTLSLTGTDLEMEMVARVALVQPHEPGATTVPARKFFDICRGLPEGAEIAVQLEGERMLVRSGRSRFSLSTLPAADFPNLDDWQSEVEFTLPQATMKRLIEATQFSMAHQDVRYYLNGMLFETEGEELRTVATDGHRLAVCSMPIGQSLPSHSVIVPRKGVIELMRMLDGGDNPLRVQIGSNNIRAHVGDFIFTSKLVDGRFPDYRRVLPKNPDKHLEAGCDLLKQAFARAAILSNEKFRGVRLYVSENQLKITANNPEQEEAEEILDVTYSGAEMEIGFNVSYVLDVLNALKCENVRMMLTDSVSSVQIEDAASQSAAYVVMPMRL

VDKGSYLPRPTPPRPIYNRNGPR[Cha]FQLD-OH [P188 (Py-P7Scr), …haGQLD-OH]
-TΔS [1]: 5.5 kcal/mol
Kd [1]: 0.0758 µM
ΔG [1]: -9.89 kcal/mol
ΔH [1]: -15.4 kcal/mol

{FITC′}-VDKPPYLPRPRPPR[dR]IYN[dR]-NH2 (not fully specified) [CA3-124 (FITC-Onc112), FITC-…rIYNr-NH2]
Kd [2]: 7.7 µM
ΔG [2]: -7.1 kcal/mol
ΔH [2]: -22.6 kcal/mol

{FITC′}-KVDKPPYLPRPRPPR[dR]IYN[dR]GPRQ[Cha]DLF-OH (not fully specified) [CM1-92 (FITC-Onc112-P7), FITC-K-…rIYNrGPRQChaDLF-OH]
MIC (µM), E. coli ATCC 25922, Mueller-Hinton broth [3]: 16 µM
